Consider six molecules from patent publication US20030211537A1 (ARCH DEVELOPMENT, published 2003).

A word on the Ki: it is the dissociation constant of the complex between target and ligand, obtained from inhibition or displacement. The low end stands for tighter binding, the high end for weaker binding. One may read the IC50 as the concentration that gives 50% inhibition.

One experiment has as its target T1, rat µ opioid receptor (rat, UniProt P33535 1-398).
T1 construct: whole, on cells; Assayed in membranes of transfected COS-7 cells; also called cloned µ receptor; rat µ receptor
In words: competition vs [3H]DAMGO, COS-7 membranes.

In experiment [1] the target is T2, mouse delta opioid receptor (mORD1) (mouse, UniProt P32300 1-372).
T2 construct: Assayed in membranes of transfected COS-1, CHO-DG44 or COS-7 cells; also called msl-2; δ receptor
In words: competition vs [3H]naltrindole, CHO-DG44 membranes.
Protocol: (§1) Receptor binding assays were performed using membranes from either PC12 cells stably expressing the cloned mouse K receptor, CHO-DG44 cells stably expressing the mouse 8 receptor, or COS-7 cells transiently expressing the rat μ receptor 48-72 hours after transfection as previously described (4,10). For radioligand binding assays, cells were harvested in 50 mM Tris-HCl (pH 7.8) containing 1 mM ethylene glycol bis(β-aminoethyl ether)-N,N′-tetraacctic acid, 5 mM MgCl₂, 10 μg/ml leupeptin, 10 μg/ml pepstatin 200 μg/ml bacitracin and 0.5 μg/ml aprotinin (buffer 1) and centrifuged at 24,000 K g for 7 min at 4° C. The pellet was homogenized in buffer 1 using a Polytron (Brinkmann, setting 2.5 30 sec). The Homogenate was then centrifuged at 48,000 κ g for 20 min at 4° C. The pellet was homogenized in buffer 1 and this membrane preparation was used for the radioligand binding studies. […] The binding reaction was terminated by the addition of ice-cold 50 mM Tris-HCl buffer (pH 7.8) and rapid filtration over Whatman GF/B glass fiber filters which were pretreated with 0.5% polyethyleneimine/0.1% BSA for at least 1 hour. The filters were then washed with 12 mL of ice-cold Tris-HCl buffer and the bound radioactivity counted in a scintillation counter. Data from radioligand binding studies were used to generate inhibition curves.

Experiment [2] deals with T3, mouse kappa opioid receptor (mORK1) (mouse, UniProt P33534 1-380).
T3 construct: Assayed in membranes of transfected COS-1, PC12 or COS-7 cells; also called msl-1; κ receptor
In words: competition vs [3H]U-69,593, PC12 membranes.
Protocol: as §1

Experiment [3] deals with cloned human µ opioid receptor (human, UniProt P35372 1-400). In words: competition vs [3H]DAMGO, COS-7 membranes.
Chain of cloned human µ opioid receptor (P35372 whole entry): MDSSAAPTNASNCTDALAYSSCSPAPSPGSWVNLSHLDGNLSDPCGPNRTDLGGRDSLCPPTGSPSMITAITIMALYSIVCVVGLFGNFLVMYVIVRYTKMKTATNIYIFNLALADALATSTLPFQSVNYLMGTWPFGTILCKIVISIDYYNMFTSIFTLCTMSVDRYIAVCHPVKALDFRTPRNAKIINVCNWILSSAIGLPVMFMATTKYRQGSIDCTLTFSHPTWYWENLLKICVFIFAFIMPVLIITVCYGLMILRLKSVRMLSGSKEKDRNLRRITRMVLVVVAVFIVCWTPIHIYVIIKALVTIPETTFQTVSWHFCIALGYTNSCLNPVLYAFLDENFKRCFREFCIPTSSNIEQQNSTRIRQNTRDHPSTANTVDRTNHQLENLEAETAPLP
Protocol: For radioligand binding assays, cells were harvested in 50 mM Tris-HCl (pH 7.8) containing 1 mM ethylene glycol bis(b-aminoethyl ether)-N,N′-tetraacetic acid, 5 mM MgCl₂, 10 mg/ml leupeptin, 10 mg/ml pepstatin, 200 mg/ml bacitracin and 0.5 mg/ml aprotinin (buffer 1) and centrifuged at 24,000×g for 7 min at 4° C. The pellet was homogenized in buffer 1 using a Polytron (Brinkmann, setting 2.5, 30 sec). The homogenate was then centrifuged at 48,000×g for 20 min at 4° C. The pellet was homogenized in buffer 1 and this membrane preparation was used for the radioligand binding studies. […] The binding reaction was terminated by the addition of ice-cold 50 mM Tris-HCl buffer (pH 7.8) and rapid filtration over Whatman GF/B glass fiber filters which were pretreated with 0.5% polyethyleneimine/0.1% BSA for at least 1 hour. The filters were then washed with 12 mL of ice-cold Tris-HCl buffer and the bound radioactivity counted in a scintillation counter. Data from radioligand binding 10 studies were used to generate inhibition curves.
In experiment [4] the target is T3, mouse kappa opioid receptor (mORK1). In words: radioligand binding, COS-1 membranes.
Experiment [5] deals with T2, mouse delta opioid receptor (mORD1). In words: radioligand binding, COS-1 membranes.
Experiment [6] concerns the target T4, κ1-78/δ70-372 chimeric opioid receptor (mouse).
T4 construct: Expressed in COS-7 cells, membranes assayed
T4 chain: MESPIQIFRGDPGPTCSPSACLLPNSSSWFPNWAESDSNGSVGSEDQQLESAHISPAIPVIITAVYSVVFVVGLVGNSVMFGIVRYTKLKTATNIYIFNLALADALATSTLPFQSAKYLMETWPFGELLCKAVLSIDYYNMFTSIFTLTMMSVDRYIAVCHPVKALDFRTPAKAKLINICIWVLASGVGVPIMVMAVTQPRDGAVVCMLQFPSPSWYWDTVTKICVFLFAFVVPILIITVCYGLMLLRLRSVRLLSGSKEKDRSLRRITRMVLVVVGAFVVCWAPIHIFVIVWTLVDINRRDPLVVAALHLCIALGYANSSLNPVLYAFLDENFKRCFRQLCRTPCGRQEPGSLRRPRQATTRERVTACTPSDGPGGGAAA
The experiment in a line: competition vs [3H]naloxone, COS-7 membranes.
Protocol: The homogenate is centrifuged at 48,000×g for 20 min at 4° C. and the pellet resuspended in Buffer 1 and used in the radioligand binding assay. […] All radioligands were obtained from NEN/Dupont (Boston, Mass.). […] The binding reaction is terminated by the addition of ice-cold 50 mM Tris-HCL (pH 7.8) and rapid filtration over Whatman GF/B glass fiber filters that were pretreated with 0.5% polyethleneimine and 0.1% bovine serum albumin. The filters were washed with 12 ml of ice-cold buffer and soaked overnight in scintillation fluid. The bound radioactivity was determined using a scintillation counter.

Starred links: 1 amine or outer side, 2 acyl side, 3 side chain; linkers in the order of their positions; H or OH if unused. Non-standard residues stand in square brackets, D forms with d. No end group written: not given here. Tyr(125I) = 125I-labelled Tyr, O=C([C@H](Cc1ccc(O[*:3])c([125I])c1)N[*:1])[*:2]

T1 sequence (P33535 whole entry): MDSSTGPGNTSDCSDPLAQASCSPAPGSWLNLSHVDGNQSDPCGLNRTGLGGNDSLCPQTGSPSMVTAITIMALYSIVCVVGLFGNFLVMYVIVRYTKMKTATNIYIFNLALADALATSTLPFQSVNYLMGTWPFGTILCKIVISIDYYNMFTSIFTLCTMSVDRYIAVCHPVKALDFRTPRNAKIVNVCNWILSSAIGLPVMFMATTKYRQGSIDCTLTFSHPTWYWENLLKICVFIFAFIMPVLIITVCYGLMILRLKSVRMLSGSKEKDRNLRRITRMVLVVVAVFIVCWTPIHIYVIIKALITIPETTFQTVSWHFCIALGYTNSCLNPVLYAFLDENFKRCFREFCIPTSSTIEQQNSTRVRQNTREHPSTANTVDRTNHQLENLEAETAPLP
Protocol for rat µ opioid receptor: as §1

B1: β-Endorphin (human) (peptide, UniProt P01189 237-267, looked up)
peptide: YGGFMTSEKSQTPLVTLFKNAIIKNAYKKGE
modifications: also: 125I-labelled where used as radioligand, site not given here
notes: domain: β-Endorphin; also called beta-endorphin
For B1, the Ki (in the experiment with rat µ opioid receptor; in experiment [1]) was 1 nM throughout.
YGGFM (peptide, UniProt P01210 100-104, looked up, domain: Met-enkephalin) [Met-enkephalin]: the Ki in experiment [2] was greater than 1000 nM.

B2: CTOP (D-Phe-Cys-Tyr-D-Trp-Orn-Thr-Pen-Thr-NH2) (peptide)
peptide: FCYWXTXT
modifications: D-Phe at 1, D-Trp at 4, Orn at 5 (printed Om), Pen at 7, C-terminal NH2; X in the letters stands for Orn 5 and Pen 7
In experiment [3], B2 gave a Ki of 3.9 nM.
Turning to AGCKNFFWKT[Tyr(125I)]TSC (peptide, UniProt P61278 103-116, looked up, ends and bridges not checked) [[125I-Tyr11] SRIF], the binding result in experiment [4] and in experiment [5] was “no binding” throughout.

B3: des-Tyr1-β-endorphin (peptide, UniProt P01189 238-267, looked up)
peptide: GGFMTSEKSQTPLVTLFKNAIIKNAYKKGE
notes: domain: des-Tyr1-β-endorphin; also called des-Tyrl-β-endorphin
For the molecule B3, the Ki (with rat µ opioid receptor; in experiment [3]; in experiment [2]; in experiment [1]) was greater than 1000 nM throughout.
In experiment [6], YGGFLRRIRPKLKWDNQ (peptide, UniProt P01213 207-223, looked up) [dynorphin (form not specified)] displayed a half-inhibitory concentration (IC50) of 40 nM.
